Test results as given in the DeepSol protein solubility set.

Assay: soluble on expression in E. coli; label from the status in PepcDB or PDB records

Question: For “AGKPDWDWQPAPKNEALIAAVSAAAQEGLNAAYQIREKQARTTKLREVYAAVQAAMAEQAAQAGQPAPDSVGVDNILFDLEARIVRSQILNGEPRIDGRDTRTVRP”, which “soluble on expression in E. coli” value is on record?
Answer: not soluble

Question: Which “soluble on expression in E. coli” value does the source give for “MAEREVRSTAYQLNAARFPLYRDLAGFDFASSEINEALVRQLHRCEFMDQANNVVLVGGPGTGKTHITTALGVRAVEHQCKRVRFFSTVEFVNVLEQEGPRAGQIANRLAHSDLVILNELGYLPFSASGGALLFHLLSTLYGRAPASSSPLKLISASASGLP” here?
Answer: not soluble

Question: Which “soluble on expression in E. coli” value does the source give for “MASLEVSRSPRRSRRELEVRSPRQNKYSVLLPTYNERENLPLIVWLLVKSFSESGINYEIIIIDDGSPDGTRDVAEQLEKIYGSDRILLRPREKKLGLGTAYIHGMKHATGNYIIIMDADLSHHPKFIPEFIRKQKEGNFDIVSGTRYKGNGGVYGWDLKRKIISRGANFLTQILLRPGASDLTGSFRLYRKEVLEKLIEKCVSKGYVFQMEMIVRARQLNYTIGEVPISFVDRVYGESKLGGNEIVSFLKGLLTLFATT” here?
Answer: not soluble

Question: Which “soluble on expression in E. coli” value does the source give for “MGSDKIHHHHHHEQKTATSEMTDVSRLMPVKIKQTVKGQEEEMLIDTVKEANRKNIKFSIAGAQHSMGGHTYYEDGIVLDMTGYNKILSLDQEKKTIRVQSGATWNDIQKYVNPYGLAVKVMQSQNIFTIGGSLSANAHGRDIRYGSLIDTVKSFRLLKADGMIITVTPKDDLFTAVIGGYGLFGVILDVTLELTDDELYVMKTEKMNYSTYSDYFSKHVKGNPDVRMHLARISTAKKGFLKDMYVTNYVLANHQDQLSSYSELKEDEYTGATKFALGLSRRYEWGRNWLWDTQQSYFLSQNGTEISRNNVMRSESKFLEYENNDNTDVLQEYFVPVKEYGSYIDDLRQTLSDEDLNLLNITIRYVQKNEKADLSYAKDDMFSLVLLINEGFSKEDQADTARIIRRMTDVAIKHGGSYYLPYMTYQTKAQMRQAYPKSEAFFQKKRTYDPDERFMNYFYQRYK” here?
Answer: not soluble

Question: For “MGSDKIHHHHHHMATDASGGVGEKAKDHVHVPYEVVSYYAARVALLECMSVGATPFTFLVQNFSGDEPYQKMIDGINRALGEANQAQATIAGSTESNMVLEQSCLGVTVIGRVHQSALKIGITPKDAGIALLGKPLVGEEVVSQEKDVFPLKQFDELLQEEGVYEIIPVGSKGVKYELEVLAATNEWNTLQVPVNGNVDLTKSSGPATSLLITFDGTMEALLKAKYSSWWTTLASKIST”, which “soluble on expression in E. coli” value is on record?
Answer: not soluble

Question: Which “soluble on expression in E. coli” value does the source give for “MRRLLLASSLLTLLAGCANHVIDPHGYDETGTAAYYGTRHHGNRTASGEPFNQNALTAAHRQLPFGTRVKVTNLNNDKSVIVRVNDRGPHTRGRLIDVSREAAEQLGMLRSGTAPVRVQALD” here?
Answer: not soluble

Question: For “MKEKIPFYNEKEFNEMMKKTKKGTFSGWYIINPENKSVEFSGNFNRQFKLNKPVIPVNTEYVTRKEFNEYKDSNDQRLTKIENKVDKLEVKVDKLEEKVDKLEAKVDKLEEKVDKLEAKVDKLEEKVDKLEAKVDSGFEMLAKILAAINKRLDSIEGRLDKIEPPKLEHHHHHH”, which “soluble on expression in E. coli” value is on record?
Answer: not soluble

Question: With “MSASQKEGKLSTATISVDGKSAEMPVLSGTLGPDVIDIRKLPAQLGVFTFDPGYGETAACNSKITFIDGDKGVLLHRGYPIAQLAENASYEEVIYLLLNGELPNKAQYDTFTNTLTNHTLLHEQIRNFFNGFRRDAHPMAILCGTVGALSAFYPDANDIAIPANRDLAAMRLIAKIPTIAAWAYKYTQGEAFIYPRNDLNYAENFLSMMFARMSEPYKVNPVLARAMNRILILHADHEQNASTSTVRLAGSTGANPFACIAAGIAALWGPAHGGANEAVLKMLARIGKKENIPAFIAQVKDKNSGVKLMGFGHRVYKNFDPRAKIMQQTCHEVLTELGIKDDPLLDLAVELEKIALSDDYFVQRKLYPNVDFYSGIILKAMGIPTSMFTVLFAVARTTGWVSQWKEMIEEPGQRISRPRQLYIGAPQRDYVPLAKR” as the sequence, how does the “soluble on expression in E. coli” value read?
Answer: soluble

Question: For “MGKEKVHINIVVIGHVDSGKSTTTGHLIYKCGGIDKRTIEKFEKEAQEMGKGSFKYAWVLDKLKAERERGITIDIALWKFETAKYYITIIDAPGHRDFIKNMITGTSQADCAVLVVACNKMDSTEPPFSEARFTEITNEVSGFIKKIGYNPKAVPFVPISGFNGDNMLEVSSNMPWFKGWAVERKEGNASGKTLLEALDSIIPPQRPTDRPLRLPLQDVYKIGGIGTVPVGRVETGIIKPGMVVTFAPQNVTTEVKSVEMHHESLPEAVPGDNVGFNVKNVSVKDIRRGSVCSDSKQDPAKEARTFHAQVIIMNHPGQISNGYTPVLDCHTAHIACKFNELKEKVDRRTGKKVEDFPKFLKSGDAGIVELIPTKPLCVESFTDYAPLGRFAVRDMRQTVAVGVIKSVEKSDGSSGKVTKSAQKAAPKKK”, which “soluble on expression in E. coli” value is on record?
Answer: not soluble
